Substitutions are numbered along the chain they refer to.

Assay [1] has as its target T1, hiR2-FL-S537E-T7 (human, UniProt Q6PJF5 1-856).
T1 sequence: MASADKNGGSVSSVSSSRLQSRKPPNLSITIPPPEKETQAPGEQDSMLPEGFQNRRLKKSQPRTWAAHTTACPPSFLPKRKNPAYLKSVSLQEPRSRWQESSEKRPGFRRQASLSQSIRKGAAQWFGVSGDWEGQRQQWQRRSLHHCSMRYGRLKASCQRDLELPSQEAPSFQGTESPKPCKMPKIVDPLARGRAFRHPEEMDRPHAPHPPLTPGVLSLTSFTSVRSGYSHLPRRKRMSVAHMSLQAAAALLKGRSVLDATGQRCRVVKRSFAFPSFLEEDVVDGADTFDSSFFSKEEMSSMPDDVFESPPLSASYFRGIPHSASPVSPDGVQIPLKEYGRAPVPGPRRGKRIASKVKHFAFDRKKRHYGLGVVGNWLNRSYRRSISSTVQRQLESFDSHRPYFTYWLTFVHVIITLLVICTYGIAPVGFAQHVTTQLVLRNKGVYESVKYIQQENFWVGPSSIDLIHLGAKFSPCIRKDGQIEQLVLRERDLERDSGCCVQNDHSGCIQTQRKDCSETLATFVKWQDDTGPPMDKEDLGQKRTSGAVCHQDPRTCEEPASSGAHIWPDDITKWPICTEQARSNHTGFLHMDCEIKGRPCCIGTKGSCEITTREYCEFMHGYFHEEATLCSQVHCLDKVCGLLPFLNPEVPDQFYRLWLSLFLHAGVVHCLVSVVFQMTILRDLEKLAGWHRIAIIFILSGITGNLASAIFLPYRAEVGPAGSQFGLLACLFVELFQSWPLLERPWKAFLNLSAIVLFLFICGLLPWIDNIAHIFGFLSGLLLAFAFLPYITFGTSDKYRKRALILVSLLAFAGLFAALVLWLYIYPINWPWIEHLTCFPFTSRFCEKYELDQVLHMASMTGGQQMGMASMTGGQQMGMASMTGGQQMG
Description: FACS on MEF-DKO cells.

The target of assay [2] is T2, human iRhom1, endogenously expressed (human, UniProt Q96CC6 1-855).
T2 construct: also called iRhom1 on RH-30 cells
T2 sequence: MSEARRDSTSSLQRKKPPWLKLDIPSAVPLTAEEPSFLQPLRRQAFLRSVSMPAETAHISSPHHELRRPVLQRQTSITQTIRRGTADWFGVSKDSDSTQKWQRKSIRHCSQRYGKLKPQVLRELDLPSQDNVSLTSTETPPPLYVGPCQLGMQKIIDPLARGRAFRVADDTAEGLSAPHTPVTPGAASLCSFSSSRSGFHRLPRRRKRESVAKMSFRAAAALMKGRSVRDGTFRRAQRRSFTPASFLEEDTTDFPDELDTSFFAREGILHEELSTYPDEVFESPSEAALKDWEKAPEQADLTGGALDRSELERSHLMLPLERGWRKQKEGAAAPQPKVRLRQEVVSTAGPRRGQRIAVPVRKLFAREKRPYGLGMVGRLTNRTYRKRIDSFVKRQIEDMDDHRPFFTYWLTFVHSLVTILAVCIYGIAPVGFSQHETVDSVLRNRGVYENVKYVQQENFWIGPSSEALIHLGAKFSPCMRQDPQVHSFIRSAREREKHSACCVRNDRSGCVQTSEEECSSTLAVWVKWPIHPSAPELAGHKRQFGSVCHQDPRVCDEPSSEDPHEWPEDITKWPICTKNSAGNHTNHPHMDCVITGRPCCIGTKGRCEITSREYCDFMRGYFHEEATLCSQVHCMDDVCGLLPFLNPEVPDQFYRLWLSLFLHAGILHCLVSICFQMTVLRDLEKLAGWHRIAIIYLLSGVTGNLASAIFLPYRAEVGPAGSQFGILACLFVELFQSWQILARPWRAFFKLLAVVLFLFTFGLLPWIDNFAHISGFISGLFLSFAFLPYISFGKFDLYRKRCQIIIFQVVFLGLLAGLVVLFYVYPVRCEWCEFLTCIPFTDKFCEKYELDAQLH
The assay is described as follows: FACS, RH-30 cells; via representative antibody 16. The procedure:
In this study, binding specificity analyses of the hybridoma supernatant leading to the antibody 16 of the invention as a representative example of antibodies 3, 16, 22 and 42 of the invention as well as of the antibody 16 of the invention as a representative example of antibodies 16, 22 and 42 of the invention in cell lines endogenously expressing iRhom2 were performed. The studies were conducted on RPMI-8226 cells, a human B lymphocytic cell line endogenously expressing iRhom2 but being endogenously negative for iRhom1, on THP-1 cells, a human monocytic cell line endogenously expressing both iRhom2 and iRhom1 and on RH-30 cells, a human […] cell line endogenously negative for iRhom2 but endogenously expressing iRhom1.
In brief, human RPMI-8226 cells (Deutsche Sammlung von Mikroorganismen und Zellkulturen, Germany), THP-1 cells (American Type Culture Collection, USA) and RH-30 cells (Deutsche Sammlung von Mikroorganismen und Zellkulturen, Germany) were harvested with 10 mM EDTA in PBS, washed and resuspended in FACS buffer (PBS, 3% FBS, 0.05% sodium azide), and seeded in Nunc U-bottom 96-well plates (Thermo Fisher Scientific, USA) at approximately 2×10⁵ cells per well. […] Finally, cells were resuspended in 150 μl per well of FACS buffer and analyzed using a BD Accuri™ C6 Plus flow cytometer (Becton Dickinson, Germany).
In general terms: A flow cytometer gives signals particle by particle.

B1: antibody 34 (antibody, V domains shown)
VH: QVTLKESGPGILQPSQTLSLTCSFSGFSLSTFSLGVGWIRQSSGKGLEWLAHIWWDDEKYYNPALKSRLTISKDTSKNQVFLKIANVDAADTATYYCARAYYSKSYYALDYWGQGTSVTVSS
VL: DIQMTQSPSSLSASLGERVSLTCRASQEISGYLSWLQQKPDGTIKRLIYAASTLDSGVPKRFSGSRSGSDYSLAISSLESEDFADYYCLQYANFPFTFGSGTKLEIK
notes: mouse IgG, kappa light chain; also called clone #34; purified antibody 34
In the case of B1, in assay [1], the binding result was “no binding (tested: 3 µg/ml)”.

B2: antibody 5 (antibody, V domains shown)
VH: QVTLKESGPGILQPSQTLSLTCSFSGFSLSTFGMGVGWIRQPSGKGLEWLAHIWWDDEKYYNSALKSRLTISKATSKNQAFLKIANVDTADTATYYCARISNYGSNYWYFNVWGTGTTVTVSS
VL: QVVLTQSPALMSASPGEKVTMTCSAGSSVSCMYWYQQKPGSSPRVLIYDTSNLASGVPARFTGSGSGTSYSLTISRMEAEDAASYYCQQWNSYPLTFGAGTKLELK
notes: mouse IgG, kappa light chain; also called clone #5; purified antibody 5
Consider B2, for which the binding result in assay [1] is recorded as “no binding (tested: 3 µg/ml)”.

B3: antibody 42 (antibody, V domains shown)
VH: B2 VH with F24L, M34R, S63P, A74D, A80V, K83R, S101Q, N111D
VL: LIVLTQSPAIMSASPGEKVTMTCGATSRISYMFWYQQKPGSSPRVLIYDTSNLASGVPVRFSGSGSGTSYSLTISRVEAEDVATYYCQQWNSYPLTFGAGTKLELK
notes: mouse IgG, kappa light chain; also called clone #42; purified antibody 42
As to B3, the binding result in assay [2] is “no binding (tested: 3 µg/ml)”.

B4: antibody 22 (antibody, V domains shown)
VH: B2 VH with A80V
VL: B2 VL with C31Y, S84T
notes: mouse IgG, kappa light chain; also called clone #22; purified antibody 22
Regarding B4, in assay [2], the binding result is recorded as “no binding (tested: 3 µg/ml)”.

These data come from US20240287172A1 (SCIRHOM, published 2024).
